Measured values: patent US20210388087A1 (Chugai, published 2021)
Changes are numbered by the printed parent chain.

B1: CE115HA000 S52cQ (antibody, human IgG1, kappa, L234A L235A, N297A, name in Kabat numbering)
heavy: QVQLVESGGGVVQPGRSLRLSCAASGFTFSNAWMHWVRQAPGKGLEWVAQIKAKQNNYATYYAESVKGRFTISRDDSKNSLYLQMNSLKTEDTAVYYCRYVHYGAYYGVDAWGQGTTVTVSSASTKGPSVFPLAPSSKSTSGGTAALGCLVKDYFPEPVTVSWNSGALTSGVHTFPAVLQSSGLYSLSSVVTVPSSSLGTQTYICNVNHKPSNTKVDKKVEPKSCDKTHTCPPCPAPEAAGGPSVFLFPPKPKDTLMISRTPEVTCVVVDVSHEDPEVKFNWYVDGVEVHNAKTKPREEQYASTYRVVSVLTVLHQDWLNGKEYKCKVSNKALPAPIEKTISKAKGQPREPQVYTLPPSRCELTKNQVSLSCAVKGFYPSDIAVEWESNGQPENNYKTTPPVLDSDGSFFLVSKLTVDKSRWQQGNVFSCSVMHEALHNHYTQKSLSLSPDYKDDDDK
chain: EPKSSDKTHTCPPCPAPELLGGPSVFLFPPKPKDTLMISRTPEVTCVVVDVSHEDPEVKFNWYVDGVEVHNAKTKPREEQYNSTYRVVSVLTVLHQDWLNGKEYKCKVSNKALPAPIEKTISKAKGQPREPQVCTLPPSRDELTKNQVSLWCLVKGFYPSDIAVEWESNGQPENNYKTTPPVLDSDGSFFLYSKLTVDKSRWQQGNVFSCSVMHEALHNRYTQKSLSLSP
light: DIVMTQSPLSLPVTPGEPASISCRSSQSLVHSNRNTYLHWYQQKPGQAPRLLIYKVSNRFSGVPDRFSGSGSGTDFTLKISRVEAEDVGVYYCGQGTQVPYTFGQGTKLEIKRTVAAPSVFIFPPSDEQLKSGTASVVCLLNNFYPREAKVQWKVDNALQSGNSQESVTEQDSKDSTYSLSSTLTLSKADYEKHKVYACEVTHQGLSSPVTKSFNRGEC
notes: one-arm antibody
B2: CE115HA000 W33F (antibody, human IgG1, kappa, L234A L235A, N297A, name in Kabat numbering)
heavy: B1 heavy with W33F, Q55S
chain: B1 chain
light: B1 light
notes: one-arm antibody
B3: CE115HA000 S62K (antibody, human IgG1, kappa, L234A L235A, N297A, name in Kabat numbering)
heavy: B1 heavy with Q55S, S65K
chain: B1 chain
light: B1 light
notes: one-arm antibody
B4: CE115HA000 V95K (antibody, human IgG1, kappa, L234A L235A, N297A, name in Kabat numbering)
heavy: B1 heavy with Q55S, V101K
chain: B1 chain
light: B1 light
notes: one-arm antibody
B5: CE115HA000 S62E (antibody, human IgG1, kappa, L234A L235A, N297A, name in Kabat numbering)
heavy: B1 heavy with Q55S, S65E
chain: B1 chain
light: B1 light
notes: one-arm antibody
B6: CE115HA000 V95E (antibody, human IgG1, kappa, L234A L235A, N297A, name in Kabat numbering)
heavy: B1 heavy with Q55S, V101E
chain: B1 chain
light: B1 light
notes: one-arm antibody
B7: CE115HA000 V11L (antibody, human IgG1, kappa, L234A L235A, N297A, name in Kabat numbering)
heavy: B1 heavy with V11L, Q55S
chain: B1 chain
light: B1 light
notes: one-arm antibody
B8: CE115HA000 V100cD (antibody, human IgG1, kappa, L234A L235A, N297A, name in Kabat numbering)
heavy: B1 heavy with Q55S, V109D
chain: B1 chain
light: B1 light
notes: one-arm antibody
B9: CE115HA000 W33H (antibody, human IgG1, kappa, L234A L235A, N297A, name in Kabat numbering)
heavy: B1 heavy with W33H, Q55S
chain: B1 chain
light: B1 light
notes: one-arm antibody
B10: CE115HA000 T57N (antibody, human IgG1, kappa, L234A L235A, N297A, name in Kabat numbering)
heavy: B1 heavy with Q55S, T60N
chain: B1 chain
light: B1 light
notes: one-arm antibody
B11: CE115HA000 T57A (antibody, human IgG1, kappa, L234A L235A, N297A, name in Kabat numbering)
heavy: B1 heavy with Q55S, T60A
chain: B1 chain
light: B1 light
notes: one-arm antibody
B12: CE115HA000 V95D (antibody, human IgG1, kappa, L234A L235A, N297A, name in Kabat numbering)
heavy: B1 heavy with Q55S, V101D
chain: B1 chain
light: B1 light
notes: one-arm antibody
B13: CE115HA000 S62D (antibody, human IgG1, kappa, L234A L235A, N297A, name in Kabat numbering)
heavy: B1 heavy with Q55S, S65D
chain: B1 chain
light: B1 light
notes: one-arm antibody
B14: CE115HA000 W33D (antibody, human IgG1, kappa, L234A L235A, N297A, name in Kabat numbering)
heavy: B1 heavy with W33D, Q55S
chain: B1 chain
light: B1 light
notes: one-arm antibody
B15: CE115HA000 S52cV (antibody, human IgG1, kappa, L234A L235A, N297A, name in Kabat numbering)
heavy: B1 heavy with Q55V
chain: B1 chain
light: B1 light
notes: one-arm antibody
B16: CE115HA000 V95S (antibody, human IgG1, kappa, L234A L235A, N297A, name in Kabat numbering)
heavy: B1 heavy with Q55S, V101S
chain: B1 chain
light: B1 light
notes: one-arm antibody
B17: CE115HA000 S74A (antibody, human IgG1, kappa, L234A L235A, N297A, name in Kabat numbering)
heavy: B1 heavy with Q55S, S77A
chain: B1 chain
light: B1 light
notes: one-arm antibody
B18: CE115HA000 S62P (antibody, human IgG1, kappa, L234A L235A, N297A, name in Kabat numbering)
heavy: B1 heavy with Q55S, S65P
chain: B1 chain
light: B1 light
notes: one-arm antibody
B19: CE115HA000 S52cY (antibody, human IgG1, kappa, L234A L235A, N297A, name in Kabat numbering)
heavy: B1 heavy with Q55Y
chain: B1 chain
light: B1 light
notes: one-arm antibody
B20: CE115HA000 T57I (antibody, human IgG1, kappa, L234A L235A, N297A, name in Kabat numbering)
heavy: B1 heavy with Q55S, T60I
chain: B1 chain
light: B1 light
notes: one-arm antibody
B21: CE115HA000 T28S (antibody, human IgG1, kappa, L234A L235A, N297A, name in Kabat numbering)
heavy: B1 heavy with T28S, Q55S
chain: B1 chain
light: B1 light
notes: one-arm antibody
B22: CE115HA000 T28D (antibody, human IgG1, kappa, L234A L235A, N297A, name in Kabat numbering)
heavy: B1 heavy with T28D, Q55S
chain: B1 chain
light: B1 light
notes: one-arm antibody
B23: CE115HA000 Y55D (antibody, human IgG1, kappa, L234A L235A, N297A, name in Kabat numbering)
heavy: B1 heavy with Q55S, Y58D
chain: B1 chain
light: B1 light
notes: one-arm antibody
B24: CE115HA000 S77T (antibody, human IgG1, kappa, L234A L235A, N297A, name in Kabat numbering)
heavy: B1 heavy with Q55S, S80T
chain: B1 chain
light: B1 light
notes: one-arm antibody
B25: CE115HA000 V95A (antibody, human IgG1, kappa, L234A L235A, N297A, name in Kabat numbering)
heavy: B1 heavy with Q55S, V101A
chain: B1 chain
light: B1 light
notes: one-arm antibody
B26: CE115HA000 V100cP (antibody, human IgG1, kappa, L234A L235A, N297A, name in Kabat numbering)
heavy: B1 heavy with Q55S, V109P
chain: B1 chain
light: B1 light
notes: one-arm antibody
B27: CE115HA000 S74P (antibody, human IgG1, kappa, L234A L235A, N297A, name in Kabat numbering)
heavy: B1 heavy with Q55S, S77P
chain: B1 chain
light: B1 light
notes: one-arm antibody
B28: CE115HA000 V95G (antibody, human IgG1, kappa, L234A L235A, N297A, name in Kabat numbering)
heavy: B1 heavy with Q55S, V101G
chain: B1 chain
light: B1 light
notes: one-arm antibody
B29: CE115HA000 W33Y (antibody, human IgG1, kappa, L234A L235A, N297A, name in Kabat numbering)
heavy: B1 heavy with W33Y, Q55S
chain: B1 chain
light: B1 light
notes: one-arm antibody
B30: CE115HA000 W33A (antibody, human IgG1, kappa, L234A L235A, N297A, name in Kabat numbering)
heavy: B1 heavy with W33A, Q55S
chain: B1 chain
light: B1 light
notes: one-arm antibody
B31: CE115HA000 T57K (antibody, human IgG1, kappa, L234A L235A, N297A, name in Kabat numbering)
heavy: B1 heavy with Q55S, T60K
chain: B1 chain
light: B1 light
notes: one-arm antibody
B32: CE115HA000 V100cE (antibody, human IgG1, kappa, L234A L235A, N297A, name in Kabat numbering)
heavy: B1 heavy with Q55S, V109E
chain: B1 chain
light: B1 light
notes: one-arm antibody

Biological target: T1, CD3 epsilon homodimer protein (UniProt P07766 23-126)
T1 construct: also called CD3 (CD3 epsilon)
Assay: SPR, CD3 epsilon homodimer on chip, one-arm antibody as analyte;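 also: surface plasmon resonance at 25 °C with CD3 epsilon homodimer amine-coupled to a CM4 sensor chip, antibody injected as analyte, HBS-EP+ as running buffer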

T1 sequence (P07766 23-126): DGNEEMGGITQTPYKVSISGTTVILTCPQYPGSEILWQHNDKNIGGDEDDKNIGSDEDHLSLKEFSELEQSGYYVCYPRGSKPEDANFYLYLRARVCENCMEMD

In order of falling “KD ratio (KD of CE115HA000/KD of altered form)” value:
1. B28  78300
2. B14  1690
3. B12  108
4. B6  50.5
5. B30  30
6. B9  4.96
7. B16  4.61
8. B25  3.15
9. B8  1.64
10. B32  1.31
11. B31  1.22
12. B4  1.15
13. B3  0.99
14. B1  0.97
15. B26  0.97
16. B22  0.93
17. B10  0.9
18. B23  0.89
19. B11  0.87
20. B13  0.87
21. B19  0.87
22. B7  0.83
23. B24  0.83
24. B5  0.82
25. B15  0.82
26. B20  0.81
27. B21  0.79
28. B17  0.77
29. B18  0.77
30. B27  0.7
31. B29  0.69
32. B2  0.66
